Laboratory results taken from patent US20110091971A1, “Differentiation of Pluripotent Stem Cells” (priority 2008, published 2011).
Substitutions are numbered along the chain they refer to.

Tested on: H1 or H9 human embryonic stem cells
Assay: Activin A bioassay: differentiation of human embryonic stem cells to definitive endoderm, cell number and SOX17 intensity by high content analysis (96-well, four days);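 for Cell Number average: Raw total cell count per well from high content imaging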;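 for Sox 17 Intensity average: total fluorescence of the cell multiplied by cell area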
Format: cell-based
Text: Activin A is an important mediator of differentiation in a broad range of cell types. […] A bioassay that measures this differentiation in human embryonic stem cells was adapted in miniaturized format to 96-well plates for screening purposes. Validation was completed using treatment with commercial sources of activin A and Wnt3a recombinant proteins and measuring protein expression of the transcription factor SOX17, which is considered a representative marker of definitive endoderm.
Live Cell Assay: Briefly, clusters of H1 or H9 human embryonic stem cells were grown on growth factor-reduced MATRIGEL™ (Invitrogen; Cat #356231)-coated tissue culture plastic. Cells were passaged using collagenase (Invitrogen; Cat # Cat #17104-019) treatment and gentle scraping, washed to remove residual enzyme, and plated in a ratio of 1:1 (surface area) on growth factor-reduced MATRIGEL™-coated 96-well plates (black, 96-well; Packard ViewPlates; Cat #6005182). Cells were allowed to attach as clusters and then recover log phase growth over a 1 to 3 day period, feeding daily with MEF conditioned medium supplemented with 8 ng/ml bFGF (R&D Systems; Cat #233-FB).
The assay was initiated by washing the wells of each plate twice in PBS and followed by adding an aliquot (100 μl) of test sample in DMEM:F12 basal medium (Invitrogen; Cat #11330-032) to each well. Test conditions were performed in triplicate, feeding […] by aspirating and replacing the medium from each well with test samples over a total four day assay period. On the first and second day of assay, test samples added to the assay wells were diluted in DMEM:F12 with 0.5% FCS (HyClone; Cat #SH30070.03) and 20 ng/ml Wnt3a (R&D Systems; Cat #1324-WN). On the third and fourth day of assay, test samples added to the assay wells were diluted in DMEM:F12 with 2% FCS, without any Wnt3a. Positive control samples consisted of recombinant human activin A (Peprotech; Cat #120-14) added at a concentration of 100 ng/ml throughout assay plus Wnt3a (20 ng/ml) on days 1 and 2. Negative control samples omitted treatment with both activin A and Wnt3a.
High Content Analysis: At the conclusion of four days of culture, assay plates were washed twice with PBS, fixed with 4% paraformaldehyde at room temperature for 20 minutes, then washed three times with PBS and permeabilized with 0.5% Triton X-100 for 20 minutes at room temperature. Cells were washed again three times with PBS and blocked with 4% chicken serum (Invitrogen; Cat #16110082) in PBS for 30 minutes at room temperature. Primary antibody (goat anti-human SOX17; R&D Systems; cat #AF1924) was diluted 1:100 in 4% chicken serum and added to each well for one hour at room temperature. Alexa Fluor 488 conjugated secondary antibody (chicken anti-goat IgG; Molecular Probes; Cat #) was diluted 1:200 in PBS and added to each sample well after washing three times with PBS. To counterstain nuclei, 4 μg/ml Hoechst 33342 (Invitrogen; Cat #H3570) was added for ten minutes at room temperature. Plates were washed once with PBS and left in 100 μl/well PBS for imaging.
Imaging was performed using an IN Cell Analyzer 1000 (GE Healthcare) utilizing the 51008bs dichroic for cells stained with Hoechst 33342 and Alexa Fluor 488. Exposure times were optimized from positive control wells and from untreated negative control wells stained with secondary antibody alone. Images from 15 fields per well were acquired to compensate for any cell loss during the bioassay and subsequent staining procedures. Measurements for total cell number and total SOX17 intensity were obtained from each well using IN Cell Developer Toolbox 1.7 (GE Healthcare) software. Segmentation for the nuclei was determined based on grayscale levels (baseline range 100-300) and nuclear size. Averages and standard deviations were calculated for each replicate data set. […]

[1] = supernatant concentration 1x, assay dilution 1:20
[2] = supernatant concentration 1x, assay dilution 1:20, control = R&D Sys Activin A 100 ng/ml on same plate
[3] = supernatant concentration 10x, assay dilution 1:20
[4] = supernatant concentration 10x, assay dilution 1:20, control = R&D Sys Activin A 100 ng/ml on same plate
[5] = supernatant concentration 10x, assay dilution 1:40
[6] = supernatant concentration 10x, assay dilution 1:40, control = R&D Sys Activin A 100 ng/ml on same plate

B1: R&D Sys Activin A (protein, UniProt P08476 311-426, looked up)
Inhibin beta A chain: GLECDGKVNICCKKQFFVSFKDIGWNDWIIAPSGYHANYCEGECPSHIAGTSGSSLSFHSTVINHYRMRGHSPFANLKSCCVPTKLRPMSMLYYDDGQNIIKKDIQNMIVEECGCS
modifications: Inhibin beta A chain activin A homodimer
Sox 17 Intensity % of control (100 ng/ml (the control itself)): 100%
Sox 17 Intensity % of control (100 ng/ml (the plate's control itself)): 100%

B2: ACTN39: activin A variant peptide, SEQ ID 40 (protein)
chain: B1 Inhibin beta A chain with I10L, F16N, Y39E, E41S, E43L, A75S, N76D, L77M, K78G
Cell Number average [1]: 1596
Sox 17 Intensity average [1]: 5.13E+04
Sox 17 Intensity % of control [2]: 0.5%
Cell Number average [3]: 3362
Sox 17 Intensity average [3]: 1.31E+06
Sox 17 Intensity % of control [4]: 14.0%
Cell Number average [5]: 1331
Sox 17 Intensity average [5]: 4.81E+05
Sox 17 Intensity % of control [6]: 5.1%

B3: ACTN45: activin A variant peptide, SEQ ID 46 (protein)
chain: B1 Inhibin beta A chain with I10T, F16N, Y39E, E41S, E43K, L77M, K78G, S79A, V82I
Cell Number average [1]: 4591
Sox 17 Intensity average [1]: 1.48E+05
Sox 17 Intensity % of control [2]: 1.6%
Cell Number average [3]: 2058
Sox 17 Intensity average [3]: 1.13E+05
Sox 17 Intensity % of control [4]: 1.2%
Cell Number average [5]: 4482
Sox 17 Intensity average [5]: 2.30E+04
Sox 17 Intensity % of control [6]: 0.2%

B4: ACTN43: activin A variant peptide, SEQ ID 44 (protein)
chain: B1 Inhibin beta A chain with I10Y, F16D, Y39R, E41D, E43K, A75S, N76D, L77M, K78G, S79A
Cell Number average [1]: 657
Sox 17 Intensity average [1]: 1.85E+04
Sox 17 Intensity % of control [2]: 0.2%
Cell Number average [3]: 877
Sox 17 Intensity average [3]: 2.13E+05
Sox 17 Intensity % of control [4]: 2.3%
Cell Number average [5]: 1251
Sox 17 Intensity average [5]: 5.57E+04
Sox 17 Intensity % of control [6]: 0.6%

B5: ACTN41: activin A variant peptide, SEQ ID 42 (protein)
chain: GLECDGKVNLCCKKQDFVSFKDIGWNDWIIAPSGYHANSCSGLCPSHIAGTSGSSLSFHSTVINHYRMRGHSPFSDRGACCIPTKLRPMSMLYYDDGQNIIKKDIQNMIVEECGCS
Cell Number average [1]: 6073
Sox 17 Intensity average [1]: 1.42E+05
Sox 17 Intensity % of control [2]: 1.5%
Cell Number average [3]: 1397
Sox 17 Intensity average [3]: 1.46E+05
Sox 17 Intensity % of control [4]: 1.6%
Cell Number average [5]: 2643
Sox 17 Intensity average [5]: 6.30E+04
Sox 17 Intensity % of control [6]: 0.7%

B6: ACTN44: activin A variant peptide, SEQ ID 45 (protein)
chain: B5 chain with D16N, S39E, L43K, R77M
Cell Number average [1]: 3657
Sox 17 Intensity average [1]: 5.01E+04
Sox 17 Intensity % of control [2]: 0.5%
Cell Number average [3]: 1508
Sox 17 Intensity average [3]: 3.24E+05
Sox 17 Intensity % of control [4]: 3.5%
Cell Number average [5]: 2272
Sox 17 Intensity average [5]: 1.58E+05
Sox 17 Intensity % of control [6]: 1.7%
